Here are results for two sequences from article PMC4632033.

This series concerns the target T1, XisR (YdaQ), rac excisionase (Escherichia coli K-12 (BW25113; MS match MG1655)) (UniProt P76057).
T1 sequence: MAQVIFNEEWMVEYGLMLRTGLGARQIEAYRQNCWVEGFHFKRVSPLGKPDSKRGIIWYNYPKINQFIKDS
Nature of the series: EMSA. To be noted: LightShift Chemiluminescent EMSA kit protocol (binding buffer not stated), 25 C, 1 h; 0.5x TBE polyacrylamide gel; protein stored in 20 mM Tris-HCl, 500 mM ….

For the sequence “CTATATGCCTTTGATGCGGAGGAATGAATGTGATGGGAGTGATGTATCTGAATAGTTGAAAAACCGCAGTCACGTCGTATGCAAGAACGTGCTGCGGTTGGTTTGACTTTGATTGAGACGTTTTGGAATTTTTTTCGGTGGCAAAAATGGGGCAAAACGCTGCAAAAGGGGCAAAAAAGGGGCAAAAAAAGAGTGGATTATCGTAGCTTATTGTTGTCGCTGATGATATTTAACACATTGAAAAATAAGTAAAATACTTATGAGTCAGAGAGTTGTGATTTTTGCCCTTAC (double strand) [AttM]”, the binding entry was “no binding”.

As to “AGATTTCTTATGCTGGGCGTTCCGGCATGACGCATACTCTTCTGATGCCATATAACGAATTGAGTCGCTTTTAAATGTCGCAAAATCAAGAAATTAGTAAGAAAGAACAATACAACCTGAACAAGTAAGGGCAAAAATCACAACTCTCTGACTCATAAGTATTTTACTTATTTTTCAATGTGTTAAATATCATCAGCGACAACAATAAGCTACGATAATCCACTCTTTTTTTGCCCCTTTTTTGCCCCTTTTGCAGCGTTTTGCCCCATTTTTGCCACCGAAAAAAATTCCAAA (double strand) [AttR]”, the binding entry is given as “binds”.
